Source: patent KR20220013302A (dated 2022)

How the values were obtained:
[1] = molecular target: T1, SARS-CoV-2 바이러스 표면 단백질 (RBD) (SARS-CoV-2, UniProt P0DTC2 319-541); test: BLI (Octet), Full IgG culture supernatant
[2] = molecular target: T1, SARS-CoV-2 바이러스 표면 단백질 (RBD); test: BLI (Octet), Full IgG

B1: No. 32 항체 (Full IgG) (antibody, V domains shown)
VH: EVQLVQSGGGLIQPGGSLRLSCAASEFIVSSNYMTWVRQAPGKGLEWVSIIYPGGSTYYADSVKGRFTISRDNSKNTLYLRMNSLRAEDTAVYYCARDLPLTGTTLDYWGQGTLVTVSS
VL: not shown
Kd [1]: 0.147 nM
Kd [2]: 0.305 nM
koff [2]: 0.000193 s⁻¹
kon [2]: 633000 M⁻¹ s⁻¹
